Reference: patent US5993823

What was measured:
[1] = molecular target: SIV NEF 155-178 peptide (LP3) on autologous macaque B-LCL (SIV; rhesus macaque (Macaca mulatta))
[2] = molecular target: SIV NEF 155-169 peptide on autologous macaque B-LCL (SIV; rhesus macaque (Macaca mulatta))
[3] = molecular target: SIV NEF 160-176 peptide on autologous macaque B-LCL (SIV; rhesus macaque (Macaca mulatta))
[4] = molecular target: SIV NEF 164-178 peptide on autologous macaque B-LCL (SIV; rhesus macaque (Macaca mulatta))
[5] = molecular target: SIV GAG 246-282 peptide (LP7) on autologous macaque B-LCL (SIV; rhesus macaque (Macaca mulatta))
[6] = molecular target: SIV NEF 125-138 peptide on autologous macaque B-LCL (SIV; rhesus macaque (Macaca mulatta))
[7] = molecular target: SIV NEF 125-147 peptide (LP2) on autologous macaque B-LCL (SIV; rhesus macaque (Macaca mulatta))
[8] = molecular target: SIV NEF 133-147 peptide on autologous macaque B-LCL (SIV; rhesus macaque (Macaca mulatta))
[9] = molecular target: SIV NEF 155-178 peptide (LP3) on autologous macaque B-LCL (SIV; rhesus macaque (Macaca mulatta)); remark: listed apart in the source
[10] = molecular target: SIV NEF 201-225 peptide (LP4) on autologous macaque B-LCL (SIV; rhesus macaque (Macaca mulatta))
[11] = molecular target: SIV NEF 201-215 peptide on autologous macaque B-LCL (SIV; rhesus macaque (Macaca mulatta))
[12] = molecular target: SIV NEF 211-225 peptide on autologous macaque B-LCL (SIV; rhesus macaque (Macaca mulatta))
[13] = molecular target: SIV GAG 165-185 peptide on autologous macaque B-LCL (SIV; rhesus macaque (Macaca mulatta))
[14] = molecular target: SIV GAG 165-195 peptide (LP6) on autologous macaque B-LCL (SIV; rhesus macaque (Macaca mulatta))
[15] = molecular target: SIV GAG 176-195 peptide on autologous macaque B-LCL (SIV; rhesus macaque (Macaca mulatta))

CTL line from PBMC of immunized macaque RS6, restimulated with the mixture of the 7 peptides (cells without a defined receptor)
specific 51Cr release (CRT), E/T 70:1 (% specific lysis) [1]: 40

CTL line from PBMC of immunized macaque RS17, restimulated with the mixture of the 7 peptides (cells without a defined receptor)
specific 51Cr release (CRT), E/T 70:1 (% specific lysis) [1]: 44
specific 51Cr release (CRT), E/T 60:1 and 20:1 (percent specific chromium release) [2]: 0
specific 51Cr release (CRT), E/T 60:1 and 20:1 (percent specific chromium release) [3]: 0
specific 51Cr release (CRT), E/T 60:1 and 20:1 (percent specific chromium release) [4]: 46

CTL line from PBMC of immunized macaque RS7, restimulated with the mixture of the 7 peptides (cells without a defined receptor)
specific 51Cr release (CRT), E/T 70:1 (% specific lysis) [5]: 59

CTL line from PBMC of immunized macaque RS20, restimulated with the mixture of the 7 peptides (cells without a defined receptor)
specific 51Cr release (CRT), E/T 60:1 and 20:1 (percent specific chromium release) [6]: 85
specific 51Cr release (CRT), E/T 60:1 and 20:1 (percent specific chromium release) [7]: 72
specific 51Cr release (CRT), E/T 60:1 and 20:1 (percent specific chromium release) [8]: 4
specific 51Cr release (CRT) (percent specific chromium release) [2]: 14
specific 51Cr release (CRT) (percent specific chromium release) [9]: 87
specific 51Cr release (CRT) (percent specific chromium release) [3]: 6
specific 51Cr release (CRT) (percent specific chromium release) [4]: 49

CTL line from PBMC of immunized macaque RS21, restimulated with the mixture of the 7 peptides (cells without a defined receptor)
specific 51Cr release (CRT), E/T 70:1 (% specific lysis) [10]: 35

CTL line from PBMC of immunized macaque RS23, restimulated with the mixture of the 7 peptides (cells without a defined receptor)
specific 51Cr release (CRT), E/T 70:1 (% specific lysis) [10]: 42
specific 51Cr release (CRT), E/T 60:1 and 20:1 (percent specific chromium release) [11]: 18
specific 51Cr release (CRT), E/T 60:1 and 20:1 (percent specific chromium release) [12]: 0

CTL line from PBMC of immunized macaque RS4, restimulated with the mixture of the 7 peptides (cells without a defined receptor)
specific 51Cr release (CRT), E/T 60:1 and 20:1 (percent specific chromium release) [13]: 8
specific 51Cr release (CRT), E/T 60:1 and 20:1 (percent specific chromium release) [14]: 57
specific 51Cr release (CRT), E/T 60:1 and 20:1 (percent specific chromium release) [15]: 35
